Starred links: 1 amine or outer side, 2 acyl side, 3 side chain; linkers in the order of their positions; H or OH if unused. Positions of bridges follow the written chain, without caps; N, C: chain ends. Non-standard residues stand in square brackets, D forms with d. Groups on a side chain read outwards from the residue. No end group written: not given here. *: point of attachment. Phe(4-COOH) = N[C@@H](Cc1ccc(C(=O)O)cc1)C(=O)O; C20 diacid = O=C(O)CCCCCCCCCCCCCCCCCCC(=O)*; C19 diacid = O=C(O)CCCCCCCCCCCCCCCCCC(=O)*; C18 diacid = O=C(O)CCCCCCCCCCCCCCCCC(=O)*; γGlu = O=C(O)[C@H](CCC(=O)[*:2])N[*:1]
Columns and labels:
[1] = target: T1, NPY2R; assay: cell-based or functional assay
T1 sequence (P49146 1-381, species assumed, looked up): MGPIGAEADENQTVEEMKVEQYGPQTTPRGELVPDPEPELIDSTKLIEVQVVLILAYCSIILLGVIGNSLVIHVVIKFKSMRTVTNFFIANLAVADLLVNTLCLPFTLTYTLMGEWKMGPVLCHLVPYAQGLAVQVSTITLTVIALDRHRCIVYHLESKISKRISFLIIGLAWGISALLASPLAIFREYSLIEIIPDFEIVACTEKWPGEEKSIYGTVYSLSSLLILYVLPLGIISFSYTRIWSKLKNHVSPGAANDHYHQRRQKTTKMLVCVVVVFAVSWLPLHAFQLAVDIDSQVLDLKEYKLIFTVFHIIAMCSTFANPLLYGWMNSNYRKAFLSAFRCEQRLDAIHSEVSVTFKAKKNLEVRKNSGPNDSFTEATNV

[2] = target: T2, NPY5R; assay: cell-based or functional assay
T2 sequence (Q15761 1-445, species assumed, looked up): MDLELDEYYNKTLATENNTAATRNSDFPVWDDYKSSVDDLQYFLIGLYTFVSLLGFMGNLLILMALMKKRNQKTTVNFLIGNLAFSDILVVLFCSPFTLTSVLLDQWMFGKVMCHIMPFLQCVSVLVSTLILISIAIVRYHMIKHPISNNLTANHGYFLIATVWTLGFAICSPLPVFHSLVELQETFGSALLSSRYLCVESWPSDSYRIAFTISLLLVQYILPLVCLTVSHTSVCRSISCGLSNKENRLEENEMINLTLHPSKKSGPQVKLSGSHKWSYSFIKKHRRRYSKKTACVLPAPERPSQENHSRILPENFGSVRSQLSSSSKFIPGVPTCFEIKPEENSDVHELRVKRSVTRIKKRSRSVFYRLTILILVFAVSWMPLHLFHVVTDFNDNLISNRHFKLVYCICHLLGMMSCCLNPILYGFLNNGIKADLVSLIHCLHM

Row | Binder | NPY2R pEC50 [1] | NPY5R pEC50 [2]
1 | PKPEK([γGlu-γGlu-C20 diacid])PGKDASPKEWNRYYKDLRHYLNWLTRQRF-NH2 (N-terminus assumed; SMILES CC(C)C[C@H](NC(=O)[C@H](CC(=O)O)NC(=O)[C@H](CCCCN)NC(=O)[C@H](Cc1ccc(O)cc1)NC(=O)[C@H](Cc1ccc(O)cc1)NC(=O)[C@H](CCCNC(=N)N)NC(=O)[C@H](CC(N)=O)NC(=O)[C@H](Cc1c[nH]c2ccccc12)NC(=O)[C@H](CCC(=O)O)NC(=O)[C@H](CCCCN)NC(=O)[C@@H]1CCCN1C(=O)[C@H](CO)NC(=O)[C@H](C)NC(=O)[C@H](CC(=O)O)NC(=O)[C@H](CCCCN)NC(=O)CNC(=O)[C@@H]1CCCN1C(=O)[C@H](CCCCNC(=O)CC[C@H](NC(=O)CC[C@H](NC(=O)CCCCCCCCCCCCCCCCCCC(=O)O)C(=O)O)C(=O)O)NC(=O)[C@H](CCC(=O)O)NC(=O)[C@@H]1CCCN1C(=O)[C@H](CCCCN)NC(=O)[C@@H]1CCCN1)C(=O)N[C@@H](CCCNC(=N)N)C(=O)N[C@@H](Cc1c[nH]cn1)C(=O)N[C@@H](Cc1ccc(O)cc1)C(=O)N[C@@H](CC(C)C)C(=O)N[C@@H](CC(N)=O)C(=O)N[C@@H](Cc1c[nH]c2ccccc12)C(=O)N[C@@H](CC(C)C)C(=O)N[C@H](C(=O)N[C@@H](CCCNC(=N)N)C(=O)N[C@@H](CCC(N)=O)C(=O)N[C@@H](CCCNC(=N)N)C(=O)N[C@@H](Cc1ccccc1)C(N)=O)[C@@H](C)O) [Compound A37] | 10.8 -Log(EC50, M) | 8.6 -Log(EC50, M)
2 | PKPEK([γGlu-γGlu-C18 diacid])PGEDASPKEWNRYYKDLRHYLNWLTRQRF-NH2 (N-terminus assumed; SMILES CC(C)C[C@H](NC(=O)[C@H](CC(=O)O)NC(=O)[C@H](CCCCN)NC(=O)[C@H](Cc1ccc(O)cc1)NC(=O)[C@H](Cc1ccc(O)cc1)NC(=O)[C@H](CCCNC(=N)N)NC(=O)[C@H](CC(N)=O)NC(=O)[C@H](Cc1c[nH]c2ccccc12)NC(=O)[C@H](CCC(=O)O)NC(=O)[C@H](CCCCN)NC(=O)[C@@H]1CCCN1C(=O)[C@H](CO)NC(=O)[C@H](C)NC(=O)[C@H](CC(=O)O)NC(=O)[C@H](CCC(=O)O)NC(=O)CNC(=O)[C@@H]1CCCN1C(=O)[C@H](CCCCNC(=O)CC[C@H](NC(=O)CC[C@H](NC(=O)CCCCCCCCCCCCCCCCC(=O)O)C(=O)O)C(=O)O)NC(=O)[C@H](CCC(=O)O)NC(=O)[C@@H]1CCCN1C(=O)[C@H](CCCCN)NC(=O)[C@@H]1CCCN1)C(=O)N[C@@H](CCCNC(=N)N)C(=O)N[C@@H](Cc1c[nH]cn1)C(=O)N[C@@H](Cc1ccc(O)cc1)C(=O)N[C@@H](CC(C)C)C(=O)N[C@@H](CC(N)=O)C(=O)N[C@@H](Cc1c[nH]c2ccccc12)C(=O)N[C@@H](CC(C)C)C(=O)N[C@H](C(=O)N[C@@H](CCCNC(=N)N)C(=O)N[C@@H](CCC(N)=O)C(=O)N[C@@H](CCCNC(=N)N)C(=O)N[C@@H](Cc1ccccc1)C(N)=O)[C@@H](C)O) [Compound A38] |  | 8.4 -Log(EC50, M)
3 | PKPEKPGK([γGlu-γGlu-C19 diacid])DASPKEWDRYYKDLRHYLNWLTRQRF-NH2 (lactam 16-20; N-terminus assumed; SMILES CC(C)C[C@H](NC(=O)[C@H](CC(=O)O)NC(=O)[C@@H]1CCCCNC(=O)C[C@H](NC(=O)[C@H](Cc2c[nH]c3ccccc23)NC(=O)[C@H](CCC(=O)O)NC(=O)[C@H](CCCCN)NC(=O)[C@@H]2CCCN2C(=O)[C@H](CO)NC(=O)[C@H](C)NC(=O)[C@H](CC(=O)O)NC(=O)[C@H](CCCCNC(=O)CC[C@H](NC(=O)CC[C@H](NC(=O)CCCCCCCCCCCCCCCCCC(=O)O)C(=O)O)C(=O)O)NC(=O)CNC(=O)[C@@H]2CCCN2C(=O)[C@H](CCCCN)NC(=O)[C@H](CCC(=O)O)NC(=O)[C@@H]2CCCN2C(=O)[C@H](CCCCN)NC(=O)[C@@H]2CCCN2)C(=O)N[C@@H](CCCNC(=N)N)C(=O)N[C@@H](Cc2ccc(O)cc2)C(=O)N[C@@H](Cc2ccc(O)cc2)C(=O)N1)C(=O)N[C@@H](CCCNC(=N)N)C(=O)N[C@@H](Cc1c[nH]cn1)C(=O)N[C@@H](Cc1ccc(O)cc1)C(=O)N[C@@H](CC(C)C)C(=O)N[C@@H](CC(N)=O)C(=O)N[C@@H](Cc1c[nH]c2ccccc12)C(=O)N[C@@H](CC(C)C)C(=O)N[C@H](C(=O)N[C@@H](CCCNC(=N)N)C(=O)N[C@@H](CCC(N)=O)C(=O)N[C@@H](CCCNC(=N)N)C(=O)N[C@@H](Cc1ccccc1)C(N)=O)[C@@H](C)O) [Compound A40] |  | 9 -Log(EC50, M)
4 | PKPEAPGK([γGlu-γGlu-C20 diacid])DASPEEWERYYKDLRHYLNWLTRQRF-NH2 (lactam 16-20) [Compound A41] | 10.5 -Log(EC50, M) | 9.3 -Log(EC50, M)
5 | PKPEAPGK([γGlu-γGlu-C20 diacid])DASPEEWDRYYKDLRHYLNWLTRQRF-NH2 (lactam 16-20) [Compound A42] | 10.3 -Log(EC50, M) | 9.1 -Log(EC50, M)
6 | PKPEAPGK([γGlu-γGlu-C20 diacid])DASPEEWKRYYEDLRHYLNWLTRQRF-NH2 (lactam 16-20) [Compound A43] | 10.5 -Log(EC50, M) | 8.5 -Log(EC50, M)
7 | PKPEAPGK([γGlu-γGlu-C20 diacid])DASPEEWKRYYDDLRHYLNWLTRQRF-NH2 (lactam 16-20) [Compound A44] | 9.7 -Log(EC50, M) | 9.2 -Log(EC50, M)
8 | PKPEAPGK([γGlu-γGlu-C20 diacid])DASPEEWNRYYADLRHYLNWLTRQR[Phe(4-COOH)]-NH2 [Compound A59] |  | 6 -Log(EC50, M)
9 | PKPEKPGK([γGlu-γGlu-C20 diacid])DASPEEWSRYYKDLRHYLNWLTRQRF-NH2 (N-terminus assumed; SMILES CC(C)C[C@H](NC(=O)[C@H](CC(=O)O)NC(=O)[C@H](CCCCN)NC(=O)[C@H](Cc1ccc(O)cc1)NC(=O)[C@H](Cc1ccc(O)cc1)NC(=O)[C@H](CCCNC(=N)N)NC(=O)[C@H](CO)NC(=O)[C@H](Cc1c[nH]c2ccccc12)NC(=O)[C@H](CCC(=O)O)NC(=O)[C@H](CCC(=O)O)NC(=O)[C@@H]1CCCN1C(=O)[C@H](CO)NC(=O)[C@H](C)NC(=O)[C@H](CC(=O)O)NC(=O)[C@H](CCCCNC(=O)CC[C@H](NC(=O)CC[C@H](NC(=O)CCCCCCCCCCCCCCCCCCC(=O)O)C(=O)O)C(=O)O)NC(=O)CNC(=O)[C@@H]1CCCN1C(=O)[C@H](CCCCN)NC(=O)[C@H](CCC(=O)O)NC(=O)[C@@H]1CCCN1C(=O)[C@H](CCCCN)NC(=O)[C@@H]1CCCN1)C(=O)N[C@@H](CCCNC(=N)N)C(=O)N[C@@H](Cc1c[nH]cn1)C(=O)N[C@@H](Cc1ccc(O)cc1)C(=O)N[C@@H](CC(C)C)C(=O)N[C@@H](CC(N)=O)C(=O)N[C@@H](Cc1c[nH]c2ccccc12)C(=O)N[C@@H](CC(C)C)C(=O)N[C@H](C(=O)N[C@@H](CCCNC(=N)N)C(=O)N[C@@H](CCC(N)=O)C(=O)N[C@@H](CCCNC(=N)N)C(=O)N[C@@H](Cc1ccccc1)C(N)=O)[C@@H](C)O) [Compound A75] |  | 9.3 -Log(EC50, M)
